# In patent US6518054B1, “Metallo-endopeptidases” (Rijksuniverstteit Te Groningen, priority 1997, dated 2003):
# B1: D57S: TLP-ste variant with Asp57 of the Ca3 site replaced by Ser (protein, listed as Bacillus sp.)
# chain: VAGASTVGVGRGVLGDQKYINTTYSGYYYLQDNTRGSGIFTYDGRNRTVLPGSLWTSGDNQFTASYDAAAVDAHYYAGVVYDYYKNVHGRLSYDGSNAAIRSTVHYGRGYNNAFWNGSQMVYGDGDGQTFLPFSGGIDVVGHELTHAVTDYTAGLVYQNESGAINEAMSDIFGTLVEFYANRNPDWEIGEDIYTPGVAGDALRSMSDPAKYGDPDHYSKRYTGTQDNGGVHTNSGIINKAAYLLSQGGVHYGVSVNGIGRDKMGKIFYRALVYYLTPTSNFSQLRAACVQAAADLYGSTSQEVNSVKQAFNAVGVY
# B2: T63F-A69P: TLP-ste variant with the combined stabilising T63F-A69P mutation (protein, listed as Bacillus sp.)
# chain: VAGASTVGVGRGVLGDQKYINTTYSGYYYLQDNTRGSGIFTYDGRNRTVLPGSLWTDGDNQFFASYDAPAVDAHYYAGVVYDYYKNVHGRLSYDGSNAAIRSTVHYGRGYNNAFWNGSQMVYGDGDGQTFLPFSGGIDVVGHELTHAVTDYTAGLVYQNESGAINEAMSDIFGTLVEFYANRNPDWEIGEDIYTPGVAGDALRSMSDPAKYGDPDHYSKRYTGTQDNGGVHTNSGIINKAAYLLSQGGVHYGVSVNGIGRDKMGKIFYRALVYYLTPTSNFSQLRAACVQAAADLYGSTSQEVNSVKQAFNAVGVY
# B3: D57S-T63F-A69P: TLP-ste variant combining D57S with T63F-A69P (protein, listed as Bacillus sp.)
# chain: VAGASTVGVGRGVLGDQKYINTTYSGYYYLQDNTRGSGIFTYDGRNRTVLPGSLWTSGDNQFFASYDAPAVDAHYYAGVVYDYYKNVHGRLSYDGSNAAIRSTVHYGRGYNNAFWNGSQMVYGDGDGQTFLPFSGGIDVVGHELTHAVTDYTAGLVYQNESGAINEAMSDIFGTLVEFYANRNPDWEIGEDIYTPGVAGDALRSMSDPAKYGDPDHYSKRYTGTQDNGGVHTNSGIINKAAYLLSQGGVHYGVSVNGIGRDKMGKIFYRALVYYLTPTSNFSQLRAACVQAAADLYGSTSQEVNSVKQAFNAVGVY
# B4: TLP-ste: broad-specificity metalloprotease (thermolysin-like protease) produced by Bacillus stearothermophilus CU21, SEQUENCE ID No. 1 (protein)
# chain: VAGASTVGVGRGVLGDQKYINTTYSSYYGYYYLQDNTRGSGIFTYDGRNRTVLPGSLWTDGDNQFTASYDAAAVDAHYYAGVVYDYYKNVHGRLSYDGSNAAIRSTVHYGRGYNNAFWNGSQMVYGDGDGQTFLPFSGGIDVVGHELTHAVTDYTAGLVYQNESGAINEAMSDIFGTLVEFYANRNPDWEIGEDIYTPGVAGDALRSMSDPAKYGDPDHYSKRYTGTQDNGGVHTNSGIINKAAYLLSQGGVHYGVSVNGIGRDKMGKIFYRALVYYLTPTSNFSQLRAACVQAAADLYGSTSQEVNSVKQAFNAVGVY
# B5: TLN: thermolysin, protease secreted by Bacillus thermoproteolyticus, SEQUENCE ID No. 2 (protein, UniProt P00800 233-548, looked up)
# Thermolysin: ITGTSTVGVGRGVLGDQKNINTTYSTYYYLQDNTRGNGIFTYDAKYRTTLPGSLWADADNQFFASYDAPAVDAHYYAGVTYDYYKNVHNRLSYDGNNAAIRSSVHYSQGYNNAFWNGSQMVYGDGDGQTFIPLSGGIDVVAHELTHAVTDYTAGLIYQNESGAINEAISDIFGTLVEFYANKNPDWEIGEDVYTPGISGDSLRSMSDPAKYGDPDHYSKRYTGTQDNGGVHINSGIINKAAYLISQGGTHYGVSVVGIGRDKLGKIFYRALTQYLTPTSNFSQLRAAAVQSATDLYGSTSQEVASVKQAFDAVGVK
# What was measured:
# [1] = Thermal stability (T50) at varying CaCl2 concentrations
# Protocol: Thermal stability was measured, using varying CaCl2concentrations in the standard assay buffer (20 mM Na acetate, pH 5.3, 0.01% Triton X-100, 0.5% isopropanol, 62.5 mM NaCl). T50 is the temperature of incubation at which 50 percent of the initial proteolytic activity is lost during a 30 minutes incubation.
# [2] = First order thermal inactivation of TLP-ste variants at 75° C. in 5 mM or 0.2 mM CaCl2
# casein [3] = experiment: Specific activity with casein as substrate at 37° C.; format: biochemical; conditions: casein 0.8%, pH 7.5, 5 mM CaCl2
# Protocol: (§1) Specific activities for TLP-ste and the 8-fold mutant were determined using casein (0.8%) as a substrate in 50 mM Tris-HCl (pH 7.5), 5 mM CaCl2 at 37° C. […] (pH 7.0), 5 mM CaCl2, 5% or 1% DMSO, 0.5% isopropanol, 0.01% Triton X-100, 50 mM NaCl, with […] of substrate, by measuring the decrease in absorption at 345 nm (Î345=−317 M^−1·cm^−1). Stock solutions of the furylacryloylated dipeptides, (Sigma, St. Louis, […].) were prepared by dissolving 3-(-2-furylacryloyl)-L-glycyl-L-leucine amide (FaGLa) and 3-(-2-furylacryloyl)-L-alanyl-L-phenylalanine amide (FaAFa) in DMSO. The kcat/Km ratios of the enzymes were determined by varying the enzyme concentrations (over a 50 fold range) under pseudo-first order conditions by measuring the initial activity, essentially according to the method described by Feder^30. The Ki for phosphoramidon (N-[a-L-rhamnopyrano-syl-oxyhydroxyphophinyl]-L-leucyl-L-tryptophan) was determined by a 30 minute preincubation of a 100 pM protease solution with varying concentrations of the inhibitor (10^−8 to 10^−3 M), in 50 mM MOPS (pH 7.0), 5 mM CaCl2, 50 mM NaCl, prior to the addition of the furylacryloated substrate. For determination of the Ki FaAFa was used as the substrate. Since the Km of the substrate for the enzyme is higher than the concentration used, IC50 values were taken to be equal to Ki values. The optimum temperature for activity was determined by incubating proteases with casein (0.8%) in 50 mM Tris-HCl (pH 7.5), 5 mM CaCl2, at different temperatures for 30 minutes, after which the amount of released peptides, indicative for activity, was measured^11.
# casein [4] = experiment: Optimum temperature for activity with casein; format: biochemical; conditions: casein 0.8%, 30 minutes
# Protocol: as §1
# [5] = format: physicochemical; conditions: buffer, pH 5.3
# Protocol: Stabilities of TLPs were determined at different temperatures. Shown are the first-order inactivation curves for TLP-ste incubated at 80° C. (Δ) and 90° C. (+), thermolysin at 90° C. (Δ), and the 8-fold mutant at 100° C. (●), respectively. […] Samples, taken at the various time points, were quickly cooled on ice (15 s) and transferred to 50° C. to prevent cold denaturation. Residual activity was determined using casein (0.8%) as a substrate in 50 mM TrisHCl (pH 7.5), 5 mM CaCl2 as described previously (Eijsink, V. G. H., Veltman, O. R., Aukema, W., Vriend, G. & Venema, G. Nature Struct. Biol. 2, 374-379 (1995)).
# [6] = Effect of denaturing agents on protease activity (FaGLa, 50° C.); format: biochemical
# Protocol: Protease activities were determined in 50 mM MOPS (pH 7.0), 5 mM CaCl2, 50 mM NaCl, 0.01% Triton X-100, 0.5% isopropanol, using 100 μM FaGLa (3-(-2-furylacryloyl)-L-glycyl-L-leucine amide) as a substrate at 50° C. Enzymes and denaturing agents were preincubated in the reaction mixture at 50° C. for 15 minutes prior to the addition of the substrate. The reaction was followed by measuring the change in absorbance at 345 nm. […] Activities are expressed as percentage of the activity in the absence of denaturant.
# [7] = system: α-amylase from Bacillus licheniformis; experiment: Hydrolysis of protease resistant α-amylase (SDS-PAGE); format: biochemical; conditions: 60 minutes
# Protocol: As an example of the enzymatic activity of the 8-fold mutant we tested the hydrolysis of protease resistant α-amylase from Bacillus licheniformis by the 8-fold mutant. B. licheniformis α-amylase (1 mg/ml) in 50 mM MOPS, pH 7.0, 5 mM CaCl2, 0.01% Triton X-100 was incubated with purified TLP-ste (1 μg/ml), the 8-fold mutant or without protease for 60 minutes at the temperature indicated. The reaction volume was 500 μL. […] Precipitates (only observed in the 100° C. samples) were collected by centrifugation and redissolved in 500 μL 6 M Urea. Both supernatants and redissolved precipitates were subjected to standard SDS-PAGE, including pre-treatment with sample loading buffer (5 minutes at 100° C.). The samples were identical in size (20 μL supernatant and 20 μL dissolved precipitate). Gels were stained with Coomassie-brilliant blue.
# [8] = 0.2 mM CaCl2, 30 minutes incubation
# [9] = 0.5 mM CaCl2, 30 minutes incubation
# [10] = 2.5 mM CaCl2, 30 minutes incubation
# [11] = 5.0 mM CaCl2, 30 minutes incubation
# [12] = 7.5 mM CaCl2, 30 minutes incubation
# [13] = 12.5 mM CaCl2, 30 minutes incubation
molecule,measurement,setting,value
B1,dependence of stability on the calcium concentration,[1],reduced this calcium dependence
same,T50,[1]; [8],65.9 °C
same,T50,[1]; [9],67.3 °C
same,T50,[1]; [10],67.5 °C
same,T50,[1]; [11],68.2 °C
same,T50,[1]; [12],68.8 °C
same,T50,[1]; [13],69.4 °C
same,stability effect of the mutation on the wild-type enzyme,[1]; lowest calcium concentration tested,slightly stabilised
same,Half-life ratio 5 mM/0.2 mM,[2],1.5
B2,dependence of stability on the calcium concentration,[1],depended strongly on the calcium concentration
same,T50,[1]; [8],77.8 °C
same,T50,[1]; [9],80.9 °C
same,T50,[1]; [10],86.6 °C
same,T50,[1]; [11],87.2 °C
same,T50,[1]; [12],89.7 °C
same,T50,[1]; [13],90.2 °C
same,Half-life ratio 5 mM/0.2 mM,[2],19
B3,dependence of stability on the calcium concentration,[1],largely independent of the calcium concentration
same,T50,[1]; [8],74.6 °C
same,T50,[1]; [9],75.4 °C
same,T50,[1]; [10],76.2 °C
same,T50,[1]; [11],76.5 °C
same,T50,[1]; [12],76.7 °C
same,T50,[1]; [13],77.2 °C
same,stability compared with the wild-type enzyme,[1]; at lower calcium concentrations,considerably more stable than the wild-type enzyme
same,Half-life ratio 5 mM/0.2 mM,[2],1.5
B4,Specific activity casein,casein [3],3.5 ± 0.7 (U/mg) × 10^−3
same,Topt (optimum temperature for activity),casein [4],74 °C
same,half-life 80° C.,[5],17.5 min
same,half-life 90° C.,[5],<2 min
same,half-life 100° C.,[5],<0.5 min
same,relative activity,[6]; GndHCl 0 M,100%
same,relative activity,[6]; GndHCl 1.0 M,99%
same,relative activity,[6]; GndHCl 2.0 M,62%
same,relative activity,[6]; GndHCl 3.0 M,0%
same,relative activity,[6]; GndHCl 4.0 M,0%
same,relative activity,[6]; GndHCl 5.0 M,0%
same,relative activity,[6]; GndHCl 5.5 M,0%
same,relative activity,[6]; GndHCl 6.0 M,0%
same,relative activity,[6]; SDS 0 % w/v,100%
same,relative activity,[6]; SDS 0.25 % w/v,72%
same,relative activity,[6]; SDS 0.5 % w/v,37%
same,relative activity,[6]; SDS 0.75 % w/v,9.6%
same,relative activity,[6]; SDS 1.0 % w/v,0%
same,relative activity,[6]; SDS 1.25 % w/v,0%
same,relative activity,[6]; SDS 1.5 % w/v,0%
same,relative activity,[6]; SDS 2.0 % w/v,0%
same,relative activity,[6]; Urea 0 M,100%
same,relative activity,[6]; Urea 0.5 M,96%
same,relative activity,[6]; Urea 1.0 M,87%
same,relative activity,[6]; Urea 2.0 M,75%
same,relative activity,[6]; Urea 3.0 M,3%
same,relative activity,[6]; Urea 4.0 M,0%
same,relative activity,[6]; Urea 5.0 M,0%
same,relative activity,[6]; Urea 7.5 M,0%
same,degradation of B. licheniformis α-amylase,[7]; 80° C. and lower,No significant degradation
same,hydrolysis of B. licheniformis α-amylase,[7]; 100° C.,no hydrolysis had occurred
same,T50,[1]; [8],65.5 °C
same,T50,[1]; [9],67.5 °C
same,T50,[1]; [10],72.9 °C
same,T50,[1]; [11],75.2 °C
same,T50,[1]; [12],77.0 °C
same,T50,[1]; [13],77.9 °C
same,Half-life ratio 5 mM/0.2 mM,[2],12
B5,Topt (optimum temperature for activity),casein [4],77 °C
same,half-life 80° C.,[5],>200 min
same,half-life 90° C.,[5],12.5 min
same,half-life 100° C.,[5],<2 min
